± gives the uncertainty stated by the source.
Assay: protein stability index of a GFP-peptide fusion (yeast GPS) (PSI 1-4); higher = more stable; sorted into four equal gates, so the index is relative within each strain
Procedure, shortened: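 For each peptide, the protein stability index sums the read frequency in every gate after multiplying it by the gate number. Read frequencies came from plasmids that were PCR-amplified from each gate and Illumina-sequenced, with reads assigned to strains by barcodes. The gates were four equal bins of GFP/Cherry fluorescence ratio applied to mid-log yeast in leucine-free medium carrying a pooled library of tiled 17-residue yeast protein peptides fused downstream of GFP on a Cherry-expressing plasmid.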

| Sequence | protein stability index (doa10∆) | protein stability index (pdr5∆) | protein stability index (san1∆) | protein stability index (ubr1∆) |
| --- | --- | --- | --- | --- |
| AVSAASVVSMSNDVLKP [SIR2] | 2.5 ± 0.048 | 3.11 ± 0.064 | 2.82 ± 0.063 | 2.75 ± 0.04 |
| IQKESTLHLVLRLRGGG [RPS31] | 2.64 ± 0.12 | 2.31 ± 0.067 | 1.75 ± 0.096 | 2.45 ± 0.066 |
| TSPLYMDPGAPLPVETP [SSN2] | 3.09 ± 0.12 | 2.82 ± 0.12 | 2.75 ± 0.17 | 2.81 ± 0.11 |
| PYQHPPNIFPNLTYYNE [ITC1] | 2.68 ± 0.058 | 2.83 ± 0.045 | 2.66 ± 0.045 | 2.76 ± 0.039 |
| PEREVLVRELYQWRDLI [RRP6] | 2.91 ± 0.057 | 2.78 ± 0.07 | 2.67 ± 0.066 | 2.58 ± 0.049 |
| FPNIAIRPTELRLPFSA [PRP8] | 2.11 ± 0.084 | 1.85 ± 0.086 | 1.93 ± 0.09 | 2.23 ± 0.076 |
| AIQMVDPASFYLFDEID [SMC3] | 1.95 ± 0.042 | 2.32 ± 0.049 | 2.66 ± 0.067 | 2.07 ± 0.045 |
| GRHHQEEELFQEMIEIS [SRP54] | 3.21 ± 0.058 | 3.3 ± 0.047 | 3.41 ± 0.038 | 3.35 ± 0.058 |
| MKHLGRSEGNPVIGVFQ [FAS2] | – | 2.78 ± 0.08 | 2.9 ± 0.094 | 3.01 ± 0.093 |
| DLWNNFGNIMDNLLEMS [RRP6] | 3.42 ± 0.094 | 2.88 ± 0.076 | 3.21 ± 0.058 | 2.95 ± 0.11 |
| KASVTIVFDNTDKSNSP [SMC2] | 2.99 ± 0.045 | 3.02 ± 0.044 | 2.9 ± 0.042 | 3.156 ± 0.028 |
| TDGDSILYYDVLFITPD [BRR2] | 2.47 ± 0.068 | 2.5 ± 0.064 | 2.54 ± 0.068 | 2.94 ± 0.051 |
| TAGKTSVKSARTSTRGR [SNF2] | 3.44 ± 0.058 | 3.37 ± 0.052 | 3.12 ± 0.042 | 3.206 ± 0.031 |
| YKVDAEGKVTKLRRECS [RPS31] | 2.68 ± 0.12 | 2.92 ± 0.14 | 2.67 ± 0.12 | 3.22 ± 0.078 |
| AQQKLKQNPGLMQNMMN [SRP54] | 2.74 ± 0.056 | 2.42 ± 0.059 | 2.79 ± 0.044 | 2.54 ± 0.033 |
| SKLSLSRTDAVRCKDCG [RPC10] | 1.77 ± 0.076 | 1.9 ± 0.064 | 1.85 ± 0.13 | 1.9 ± 0.076 |
| SENQRQIFCVFSGKGVH [GRR1] | 2.94 ± 0.073 | 2.5 ± 0.065 | 2.62 ± 0.053 | 2.76 ± 0.046 |
| IGANIYQSPTIFKIVQS [MED6] | 2.25 ± 0.069 | 2.08 ± 0.072 | 1.84 ± 0.1 | 2.27 ± 0.037 |
| LTGEATANALPLPAVFS [RPL4A] | 2.02 ± 0.052 | 2.36 ± 0.047 | 2.35 ± 0.068 | 2.71 ± 0.038 |
| LDKIYTRPISSQVLDLA [SMC2] | 1.53 ± 0.079 | 2.01 ± 0.08 | 1.25 ± 0.15 | 1.27 ± 0.054 |
| VISNLVPKLESSRTKFW [YJL039C/NUP192] | 2.36 ± 0.26 | 2.6 ± 0.13 | 2.48 ± 0.28 | 2.69 ± 0.2 |
| VQDLGSAISVTNVEDPL [SIR2] | 2.34 ± 0.069 | 1.97 ± 0.064 | 2.47 ± 0.13 | 2.21 ± 0.054 |
| NEQAARAANQGALPPDL [CYT1] | 3.18 ± 0.058 | 3.32 ± 0.049 | 2.94 ± 0.053 | 3.03 ± 0.042 |
| RILAMCVKNHGQSSSIQ [YCS4] | 2.11 ± 0.055 | 1.79 ± 0.051 | 2.13 ± 0.057 | 1.94 ± 0.054 |
| NTNGTNASANSTSFSFN [YOR098C/NUP1] | 2.91 ± 0.045 | 3.12 ± 0.045 | 2.99 ± 0.042 | 3.06 ± 0.031 |
| KSYYLNTVMLQGIFKNS [AAR2] | 1.34 ± 0.069 | 1.26 ± 0.076 | 2.14 ± 0.14 | 1.24 ± 0.054 |

| Sequence | protein stability index (doa10∆) | protein stability index (pdr5∆) | protein stability index (san1∆) | protein stability index (ubr1∆) |
| --- | --- | --- | --- | --- |
| HQGSGGSVMSASVEIVF [SMC3] | 2.05 ± 0.11 | 2.56 ± 0.081 | 2.4 ± 0.082 | 2.26 ± 0.091 |
| QMLIQGVWDVDNPLRQI [BRR2] | 3.54 ± 0.13 | 3.26 ± 0.19 | 3.47 ± 0.091 | 2.78 ± 0.14 |
| EDEDEDDETPSCEVEEI [SNU114] | 3.05 ± 0.051 | 2.22 ± 0.05 | 2.99 ± 0.056 | 2.85 ± 0.044 |
| PSTRSNFILEVFGTIIP [YJL039C/NUP192] | 1.35 ± 0.085 | 1.41 ± 0.071 | 1.28 ± 0.23 | 1.35 ± 0.072 |
| KDRLYCGKCHSVYKVNA [RPS31] | 1.49 ± 0.086 | 2.26 ± 0.1 | 1.89 ± 0.14 | 2.01 ± 0.052 |
| KVDNDLRIELQSVYNDE [SRB8] | 3.16 ± 0.22 | 3.29 ± 0.24 | 3.26 ± 0.12 | – |
| AKLRKELVETSEVRKAV [FAS2] | 2.7 ± 0.16 | – | – | 1.38 ± 0.25 |
| KLKYHDFLRKATAFNKT [RPL16A] | 1.16 ± 0.13 | 1.24 ± 0.14 | – | 1.22 ± 0.15 |
| KPTVILKLLKENIIQME [FAS1] | 1.38 ± 0.087 | 1.36 ± 0.12 | 1.24 ± 0.11 | 1.1 ± 0.11 |
| ASLKIKNATDLQQAKLR [SMC3] | 3.11 ± 0.12 | 2.96 ± 0.11 | 2.93 ± 0.13 | 3.09 ± 0.095 |
| YFLRRQYILQIVSFIVN [YJL039C/NUP192] | 1.2 ± 0.048 | 1.38 ± 0.068 | 1.31 ± 0.14 | 1.1 ± 0.055 |
| VKAILMQRHVKVDGKVR [RPS4A] | 3.13 ± 0.15 | 3.09 ± 0.11 | 3.55 ± 0.2 | 2.9 ± 0.086 |
| SSLFNNSTNSNTTKPAF [YJL041W/NSP1] | 2.45 ± 0.054 | 2.15 ± 0.049 | 2.61 ± 0.042 | 2.06 ± 0.037 |
| LSSIEASLKIKNATDLQ [SMC3] | 1.84 ± 0.064 | 2.06 ± 0.091 | 2.56 ± 0.12 | 2.4 ± 0.077 |
| LRRIITDLNQDSAAIIA [GRR1] | 2.64 ± 0.075 | 2.31 ± 0.068 | 2.6 ± 0.064 | 2.55 ± 0.053 |
| LMETLRTLRRKGDINPE [RPB2] | 3.08 ± 0.1 | 3.37 ± 0.079 | 2.85 ± 0.088 | 3.16 ± 0.069 |
| IKKPTSAVVSSNASRRK [RPN4] | 2.47 ± 0.17 | 2.3 ± 0.17 | 2.36 ± 0.076 | 2.89 ± 0.27 |
| ELISYRNESLKNNSSIR [SRB8] | 3.15 ± 0.068 | 3.05 ± 0.11 | 3.05 ± 0.08 | 3.05 ± 0.049 |
| YLTPPHECRLRDMTYSA [RET1] | 3.22 ± 0.11 | 3.02 ± 0.12 | 2.76 ± 0.16 | 3.14 ± 0.15 |
| DPTKVTEFEFYLLEELE [SSN8] | 3.19 ± 0.065 | 3.28 ± 0.058 | 3.21 ± 0.068 | 3.25 ± 0.049 |
| VDTSTELESMLEDLKNT [RRP6] | 3.56 ± 0.24 | 3.03 ± 0.14 | 3.46 ± 0.11 | 3.13 ± 0.054 |
| VSDDESNGEVLEVGKNN [RPN14] | 3.19 ± 0.1 | 2.99 ± 0.16 | 3.07 ± 0.16 | 3.24 ± 0.056 |
| IPVEILVRRLSDIKQGY [PRE9] | 2.95 ± 0.08 | 2.72 ± 0.095 | 2.79 ± 0.061 | 2.87 ± 0.06 |
| SENEDTKDLLSKSPSEW [CSE2] | 3.21 ± 0.067 | 3.11 ± 0.067 | 3.15 ± 0.051 | 3.19 ± 0.046 |
| ERNAFLSDYEVLKFLTD [RPC17] | 3.44 ± 0.096 | 3.04 ± 0.087 | 3.28 ± 0.05 | 3.05 ± 0.086 |
| KAPTKLDDPEAVSKDPL [DIS3] | 3.35 ± 0.089 | 3.45 ± 0.12 | 3.17 ± 0.058 | 3.26 ± 0.068 |
